Molecular target: human CEACAM5 (carcinoembryonic antigen, CEA) on cells (human) (UniProt P06731)
Assay: flow cytometry, MKN45 cells
Parameters: unit not given beside the values

Chain of human CEACAM5 (carcinoembryonic antigen, CEA) on cells (human) (P06731 35-685 E398K limits assumed): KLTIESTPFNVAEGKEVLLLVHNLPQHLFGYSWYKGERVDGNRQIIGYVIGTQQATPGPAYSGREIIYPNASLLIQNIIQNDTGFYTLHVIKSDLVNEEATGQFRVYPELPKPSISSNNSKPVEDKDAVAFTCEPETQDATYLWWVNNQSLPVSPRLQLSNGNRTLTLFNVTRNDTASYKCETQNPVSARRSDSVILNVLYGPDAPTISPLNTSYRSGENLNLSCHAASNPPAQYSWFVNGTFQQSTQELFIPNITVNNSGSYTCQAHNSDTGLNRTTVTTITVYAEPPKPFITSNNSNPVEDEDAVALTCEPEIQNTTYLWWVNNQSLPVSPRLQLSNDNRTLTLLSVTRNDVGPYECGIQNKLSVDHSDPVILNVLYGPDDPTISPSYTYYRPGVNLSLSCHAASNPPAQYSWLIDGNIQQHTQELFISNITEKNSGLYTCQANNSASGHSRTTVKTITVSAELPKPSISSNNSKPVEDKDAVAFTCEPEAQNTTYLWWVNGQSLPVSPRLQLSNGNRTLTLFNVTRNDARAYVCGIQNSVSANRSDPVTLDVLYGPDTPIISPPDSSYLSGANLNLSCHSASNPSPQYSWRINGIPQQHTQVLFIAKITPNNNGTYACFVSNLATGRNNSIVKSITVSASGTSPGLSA

B1: P1AE3125 (antibody, IgG1, V domains shown)
VH: QVQLVQSGAEVKKPGASVKVSCKASGFNIKDSYMHWVRQAPGQGLEWMGWIDPENGDTEYAPKFQGRVTMTTDTSISTAYMELSRLRSDDTAVYYCNEGTPTGPYYFDYWGQGTLVTVSS
VL: DIQMTQSPSSLSASVGDRVTITCRASSSVSYMHWYQQKPGKAPKLLIYSTSNLASGVPSRFSGSGSGTDFTLTISSLQPEDFATYYCQQRSSYPLTFGGGTKLEIK
AUC: 3140

Source: US20220267464A1
